Experiments:
[1] = biological target: proHB-EGF mutated at the protease cleavage site, expressed on Ba/F3 cells (HB-EGF_Ba/F3) (human) (UniProt Q99075); test: flow cytometry, hybridoma culture supernatant on HB-EGF_Ba/F3 cells, FITC-anti-mouse IgG; EXP. 2 (no-mAb control 6.9)
[2] = biological target: proHB-EGF mutated at the protease cleavage site, expressed on Ba/F3 cells (HB-EGF_Ba/F3) (human) (UniProt Q99075); test: flow cytometry, hybridoma culture supernatant on HB-EGF_Ba/F3 cells, FITC-anti-mouse IgG; EXP. 1 (no-mAb control 19.1)
[3] = biological target: HB-EGF protein (R&D Systems, Inc., 259-HE) (human, UniProt Q99075 63-148); test: cell-based or functional assay
Sequence of HB-EGF protein (R&D Systems, Inc., 259-HE) (Q99075 63-148 limits assumed): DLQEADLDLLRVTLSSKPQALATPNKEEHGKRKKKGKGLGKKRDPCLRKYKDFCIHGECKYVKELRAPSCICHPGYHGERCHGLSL

Sequence of proHB-EGF mutated at the protease cleavage site, expressed on Ba/F3 cells (HB-EGF_Ba/F3) (human) (Q99075 20-208 limits assumed, change not shown): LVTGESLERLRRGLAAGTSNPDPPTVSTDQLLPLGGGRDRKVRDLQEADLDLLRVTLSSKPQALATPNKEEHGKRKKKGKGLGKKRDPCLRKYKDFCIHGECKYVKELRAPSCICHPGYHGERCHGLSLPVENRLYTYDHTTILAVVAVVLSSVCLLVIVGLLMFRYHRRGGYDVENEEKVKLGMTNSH

B1: HC-15 (antibody, V domains shown)
VH: EVQLQQSGPELVKPGASVKISCKASGYSFTGYYMHWVKQSPEKRLEWIGEINPRTGITTYNQKFKAKATLTVDKSSSTAYMQLKSLTSEDSAVYYCARVGSSGPFTYWGQGTLVTVSA
VL: DIVMTQSPSSLSVSAGDKVTMSCKSSQSLLNSRNQKNYLAWYQQKPWQPPKLLIYGASTRESGVPDRFTGSGSGTDFTLTISSVQAEDLAVYYCQNDYSYPFTFGTGTKLEIK
[1]
  FACS (GEO-mean): 234 GEO-mean
[2]
  FACS (GEO-mean): 594 GEO-mean
[3]
  EC50 (nM) of the growth-inhibiting effect on EGFR_Ba/F3 cells in the presence of HB-EGF (80 ng/mL): 3.8 nM

Source: US20100273988A1 (Chugai, published 2010)
